The Human Domainome abundance scans (Beltran et al. 2025)
± gives the uncertainty stated by the source.

B1: Protein piccolo, residues 1058 to 1114; numbered along this chain, Q9Y6V0 (parent)
chain: TCPLCKTELNIGSKDPPNFNTCTECKNQVCNLCGFNPTPHLTEIQEWLCLNCQTQRA

Variants of: B1
Assay: abundance fitness (aPCA) (normalised: wild type 0, dead -1); higher = more abundant; growth selection in yeast, the domain comes from the species named
Details: Homo sapiens

In order of rising abundance fitness:
1. TCPLCKTELNIGSKDPPNFNTCTECKNQVCNLCGWNPTPHLTEIQEWLCLNCQTQRA [F35W]  -0.288 ± 0.11
2. TCPLCKTELNIGSKDPPNFNTCTECKNQVCNLCGFTPTPHLTEIQEWLCLNCQTQRA [N36T]  -0.28 ± 0.14
3. TCPLCKTELNIGSKDPPNFNTCTECKNQVCNLCWFNPTPHLTEIQEWLCLNCQTQRA [G34W]  -0.242 ± 0.12
4. TCPLCKTELNIGSKDPPNFNTCTECKNQVCNLCYFNPTPHLTEIQEWLCLNCQTQRA [G34Y]  -0.15 ± 0.13
5. TCPLCKTELNIGSKDPPNFNTCTECKNQVCNLCGFIPTPHLTEIQEWLCLNCQTQRA [N36I]  -0.129 ± 0.14
6. TCPLCKTELNIGSKDPPNFNTCTECKNQVCNLCGFSPTPHLTEIQEWLCLNCQTQRA [N36S]  -0.12 ± 0.095
7. TCPLCKTELNIGSKDPPNFNTCTECKNQVCNLCGFNMTPHLTEIQEWLCLNCQTQRA [P37M]  -0.098 ± 0.12
8. TCPLCKTELNIGSKDPPNFNTCTECKNQVCNLCGFAPTPHLTEIQEWLCLNCQTQRA [N36A]  -0.097 ± 0.097
9. TCPLCKTELNIGSKDPPNFNTCTECKNQVCNLCGFDPTPHLTEIQEWLCLNCQTQRA [N36D]  -0.093 ± 0.16
10. TCPLCKTELNIGSKDPPNFNTCTECKNQVCNLCGFWPTPHLTEIQEWLCLNCQTQRA [N36W]  -0.08 ± 0.11
11. TCPLCKTELNIGSKDPPNFNTCTECKNQVCNLCGFCPTPHLTEIQEWLCLNCQTQRA [N36C]  -0.054 ± 0.12
12. TCPLCKTELNIGSKDPPNFNTCTECKNQVCNLCGFNKTPHLTEIQEWLCLNCQTQRA [P37K]  -0.054 ± 0.17
13. TCPLCKTELNIGSKDPPNFNTCTECKNQVCNLCGFNLTPHLTEIQEWLCLNCQTQRA [P37L]  -0.023 ± 0.094
14. TCPLCKTELNIGSKDPPNFNTCTECKNQVCNLCGFNATPHLTEIQEWLCLNCQTQRA [P37A]  -0.02 ± 0.13
15. TCPLCKTELNIGSKDPPNFNTCTECKNQVCNLCGFQPTPHLTEIQEWLCLNCQTQRA [N36Q]  -0.011 ± 0.15
16. TCPLCKTELNIGSKDPPNFNTCTECKNQVCNLCGFNSTPHLTEIQEWLCLNCQTQRA [P37S]  0.016 ± 0.1
17. TCPLCKTELNIGSKDPPNFNTCTECKNQVCNLCGCNPTPHLTEIQEWLCLNCQTQRA [F35C]  0.019 ± 0.13
18. TCPLCKTELNIGSKDPPNFNTCTECKNQVCNLCGYNPTPHLTEIQEWLCLNCQTQRA [F35Y]  0.022 ± 0.15
19. TCPLCKTELNIGSKDPPNFNTCTECKNQVCNLCGFNRTPHLTEIQEWLCLNCQTQRA [P37R]  0.032 ± 0.091
20. TCPLCKTELNIGSKDPPNFNTCTECKNQVCNLCGFMPTPHLTEIQEWLCLNCQTQRA [N36M]  0.033 ± 0.13
21. TCPLCKTELNIGSKDPPNFNTCTECKNQVCNLCGFGPTPHLTEIQEWLCLNCQTQRA [N36G]  0.038 ± 0.087
22. TCPLCKTELNIGSKDPPNFNTCTECKNQVCNLCGFNGTPHLTEIQEWLCLNCQTQRA [P37G]  0.039 ± 0.087
23. TCPLCKTELNIGSKDPPNFNTCTECKNQVCNLCGFFPTPHLTEIQEWLCLNCQTQRA [N36F]  0.044 ± 0.14
24. TCPLCKTELNIGSKDPPNFNTCTECKNQVCNLCGFNCTPHLTEIQEWLCLNCQTQRA [P37C]  0.05 ± 0.14
25. TCPLCKTELNIGSKDPPNFNTCTECKNQVCNLCGNNPTPHLTEIQEWLCLNCQTQRA [F35N]  0.066 ± 0.15
26. TCPLCKTELNIGSKDPPNFNTCTECKNQVCNLCGFVPTPHLTEIQEWLCLNCQTQRA [N36V]  0.068 ± 0.09
27. TCPLCKTELNIGSKDPPNFNTCTECKNQVCNLCGFKPTPHLTEIQEWLCLNCQTQRA [N36K]  0.08 ± 0.14
28. TCPLCKTELNIGSKDPPNFNTCTECKNQVCNLCGFNQTPHLTEIQEWLCLNCQTQRA [P37Q]  0.097 ± 0.17
29. TCPLCKTELNIGSKDPPNFNTCTECKNQVCNLCGFEPTPHLTEIQEWLCLNCQTQRA [N36E]  0.099 ± 0.12
30. TCPLCKTELNIGSKDPPNFNTCTECKNQVCNLCGVNPTPHLTEIQEWLCLNCQTQRA [F35V]  0.108 ± 0.092
31. TCPLCKTELNIGSKDPPNFNTCTECKNQVCNLCGFNETPHLTEIQEWLCLNCQTQRA [P37E]  0.138 ± 0.12
32. TCPLCKTELNIGSKDPPNFNTCTECKNQVCNLCGANPTPHLTEIQEWLCLNCQTQRA [F35A]  0.139 ± 0.1
33. TCPLCKTELNIGSKDPPNFNTCTECKNQVCNLCGGNPTPHLTEIQEWLCLNCQTQRA [F35G]  0.175 ± 0.096
34. TCPLCKTELNIGSKDPPNFNTCTECKNQVCNLCGLNPTPHLTEIQEWLCLNCQTQRA [F35L]  0.175 ± 0.08
35. TCPLCKTELNIGSKDPPNFNTCTECKNQVCNLCGRNPTPHLTEIQEWLCLNCQTQRA [F35R]  0.21 ± 0.087
36. TCPLCKTELNIGSKDPPNFNTCTECKNQVCNLCGDNPTPHLTEIQEWLCLNCQTQRA [F35D]  0.218 ± 0.14
37. TCPLCKTELNIGSKDPPNFNTCTECKNQVCNLCGSNPTPHLTEIQEWLCLNCQTQRA [F35S]  0.236 ± 0.084
38. TCPLCKTELNIGSKDPPNFNTCTECKNQVCNLCGFNDTPHLTEIQEWLCLNCQTQRA [P37D]  0.247 ± 0.3
39. TCPLCKTELNIGSKDPPNFNTCTECKNQVCNLCGQNPTPHLTEIQEWLCLNCQTQRA [F35Q]  0.25 ± 0.15
40. TCPLCKTELNIGSKDPPNFNTCTECKNQVCNLCGKNPTPHLTEIQEWLCLNCQTQRA [F35K]  0.255 ± 0.15
41. TCPLCKTELNIGSKDPPNFNTCTECKNQVCNLCGENPTPHLTEIQEWLCLNCQTQRA [F35E]  0.275 ± 0.14
42. TCPLCKTELNIGSKDPPNFNTCTECKNQVCNLCGHNPTPHLTEIQEWLCLNCQTQRA [F35H]  0.275 ± 0.15
43. TCPLCKTELNIGSKDPPNFNTCTECKNQVCNLCGPNPTPHLTEIQEWLCLNCQTQRA [F35P]  0.285 ± 0.14
44. TCPLCKTELNIGSKDPPNFNTCTECKNQVCNLCGMNPTPHLTEIQEWLCLNCQTQRA [F35M]  0.291 ± 0.12
45. TCPLCKTELNIGSKDPPNFNTCTECKNQVCNLCGTNPTPHLTEIQEWLCLNCQTQRA [F35T]  0.298 ± 0.14
46. TCPLCKTELNIGSKDPPNFNTCTECKNQVCNLCGFHPTPHLTEIQEWLCLNCQTQRA [N36H]  0.313 ± 0.24
